Assay [1] has as its target RSV A + RSV B bivalent composition (RSV subtype A; RSV subtype B). In words: AM14 Fab titration by SEC; Low-Fast cycle; 1 M 2-8°C.
Assay [2] has the same target. In words: AM14 Fab titration by SEC; High-Slow 1 cycle; 8 M 25°C.
For assay [3] the target is unchanged. In words: AM14 Fab titration by SEC; High-Slow 2 cycle; 3 M 25°C.
For assay [4] the target is unchanged. In words: AM14 Fab titration by SEC; High-Slow 2 cycle; 3 M 2-8°C. (Size exclusion chromatography separates by hydrodynamic size, large species first.)
For assay [5] the target is unchanged. In words: AM14 Fab titration by SEC; High-Slow 1 cycle; T0 (second value).
Assay [6] has the same target. In words: AM14 Fab titration by SEC; High-Slow 1 cycle; 1 M 25°C (second value).
Assay [7] has the same target. In words: AM14 Fab titration by SEC; composition of Table 17; Pre-lyo Prep 2, T0.
The target is the same in assay [8]. In words: AM14 Fab titration by SEC; composition of Table 17; Pre-lyo Prep 2, T0 (second value).
The target of assay [9] is T1, RSV F protein of subtype A comprising a polypeptide of SEQ ID NO: 1 and a polypeptide of SEQ ID NO: 2 (RSV subtype A, UniProt P11209 137-513; P03420 26-109).
T1 construct: Stabilized prefusion F trimer made of three F2-F1 heterodimers; Produced recombinantly in CHO cells; also called RSV A; RSVA
T1 chain 1: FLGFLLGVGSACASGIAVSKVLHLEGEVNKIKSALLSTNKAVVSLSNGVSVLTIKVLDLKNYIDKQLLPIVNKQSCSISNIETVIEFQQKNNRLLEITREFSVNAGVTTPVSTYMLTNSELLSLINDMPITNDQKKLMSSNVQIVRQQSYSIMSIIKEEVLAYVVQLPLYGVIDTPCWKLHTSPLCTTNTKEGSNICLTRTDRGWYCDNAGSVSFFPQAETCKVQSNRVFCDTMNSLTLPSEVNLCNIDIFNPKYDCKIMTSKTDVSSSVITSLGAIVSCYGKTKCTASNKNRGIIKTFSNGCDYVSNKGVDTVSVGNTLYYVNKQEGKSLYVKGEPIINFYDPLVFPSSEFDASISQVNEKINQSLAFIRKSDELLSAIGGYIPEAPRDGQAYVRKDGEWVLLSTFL
T1 chain 2: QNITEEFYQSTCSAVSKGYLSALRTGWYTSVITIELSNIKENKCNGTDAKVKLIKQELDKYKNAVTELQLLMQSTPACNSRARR
In words: AM14 ELISA; F9 (pH 8, 50 mM NaCl, 4.5% sucrose); T0. (In general: In an ELISA, binding on a coated surface is turned into a signal by an enzyme label.)

For assay [10], the target named is T1, RSV F protein of subtype A comprising a …. In words: AM14 ELISA; F10 (pH 7, 50 mM NaCl, 4.5% sucrose); T0.
Assay [11] shares this target. In words: AM14 ELISA; F2 (pH 8, 0 mM NaCl, 0% sucrose); 2 wk 5°C.
The target is the same in assay [12]. In words: AM14 ELISA; F3 (pH 8, 0 mM NaCl, 9% sucrose); 1 wk 25°C.
Assay [13] shares this target. In words: AM14 ELISA; F3 (pH 8, 0 mM NaCl, 9% sucrose); 2 wk 25°C.
Assay [14] shares this target. In words: AM14 ELISA; F8 (pH 7, 50 mM NaCl, 0% sucrose); 1 wk 5°C.
Assay [15] shares this target. In words: AM14 ELISA; F15 (pH 6, 0 mM NaCl, 9% sucrose); 2 wk 25°C.
Assay [16] has the same target. In words: AM14 ELISA; F7 (pH 6, 100 mM NaCl, 0% sucrose); 1 wk 5°C.
Assay [17] shares this target. In words: AM14 ELISA; F7 (pH 6, 100 mM NaCl, 0% sucrose); 2 wk 5°C.
For assay [18] the target is unchanged. In words: AM14 ELISA; F8 (pH 7, 50 mM NaCl, 0% sucrose); 1 wk 25°C.

AM14 Fab: the Prefusion Content (%) was 53% in [1]; 63% in assay [2]; 74% in [3]; 62% in [4]; 68% in [5]; 65% in assay [6]. Further, the Prefusion Content (%) worked out at 81% in [7] and 82% in assay [8].

B1: AM14 (trimeric prefusion specific antibody of the AM14 ELISA) (antibody, V domains shown)
VH: EVQLVESGGGVVQPGRSLRLSCAASGFSFSHYAMHWVRQAPGKGLEWVAVISYDGENTYYADSVKGRFSISRDNSKNTVSLQMNSLRPEDTALYYCARDRIVDDYYYYGMDVWGQGATVTVSS
VL: DIQMTQSPSSLSASVGDRVTITCQASQDIKKYLNWYHQKPGKVPELLMHDASNLETGVPSRFSGRGSGTDFTLTISSLQPEDIGTYYCQQYDNLPPLTFGGGTKVEIKR
notes: Antibody as used in the AM14 ELISA, detected with an HRP-labeled secondary antibody
For the molecule B1, the “AM14 prefusion content (%), relative to standard” value came to 94% in assay [9]; 104% in [10]; 75% in [11]; 81% in [12]; 72% in assay [13]; 99% in [14]. For the same molecule, the “AM14 prefusion content (%), relative to standard” value in assay [15] was 91%; in [16], 61%; in assay [17], 38%; in assay [18], 86%.

The record behind these values is patent US20260097113A1 (Pfizer, published 2026).
